Results as given in patent US9915657B2, “Lateral flow device for diagnosing microbial infections” (THE JOHNS HOPKINS UNIVERSITY, priority 2009, dated 2018).

What was measured:
[1] = rabbit model; within 24 hours of intravenous injection; cited from earlier work
[2] = Competition ELISA, relative affinities of GM-binding MAbs; design: species or system Aspergillus fumigatus
Experimental: FIG. 9 is a graph showing the relative affinities of GM-binding MAbs. Measurements were made by competition ELISA using soluble ethanol-precipitated culture filtrate. Percent of maximal binding is shown;
The relative affinities of the GM-binding MAbs were determined by competition ELISA. […] The % of maximal binding is shown in (FIG. 9). […] These values are similar to those reported for other polysaccharide-binding MAbs.
Competition ELISAs were done using each combination of the MAb pairs to confirm that the MAbs were binding to the same epitope and their relative avidities for GM. Biotinylation of the second MAb allowed the use of alkaline phosphatase-conjugated streptavidin for detection and was done by linkage of anion exchange-purified MAbs to sulfo-NHS-LC biotin. Competition among each of the MAb pairs was observed, supporting binding to similar epitopes or the presence of steric hindrance. […] The MAb 838-producing hybridoma manufactures relatively low concentrations of MAb, making use of this cell line difficult.

| Molecule | GM excreted in the urine [1] [%] | Kd ([2]; calculated from competition ELISA, read-out: dissociation constant (Kd)) [nM] | affinity for GM, higher than the other three MAbs ([2]; competition ELISA) | concentration required for competition, lower than for the other MAbs ([2]; competition ELISA between MAb pairs) |
| --- | --- | --- | --- | --- |
| Galactomannan [GM] | 35 | – | – | – |
| MAb 838: IgMκ monoclonal antibody to galactofuranose-containing GM; VH SEQ ID NO:7, VL SEQ ID NO:8 (antibody, listed as Mus musculus, V domains shown, (1)..(342) 838.9.4 VH (B4B); (1)..(318) 838.9.4. VL (p6)) VH: EVQLEESLRLSCATSGFTFSDFYMEWVRQPPGKRLEWIAASRNKANDYTTEYSASVKGRFFVSRDTSQSILYLQMNALRAEDTAIYYCARDVMITTGDWYFDVWGAGTTVTVSS VL: DILMTQSQKFMSTSVGDRVSVTCKASQNVGTNVAWYQQKPGQSPKALIYSASYQYSGVPDRFTGSGSGTDFTLTISNVQSEDLAEYFCQQFNSYHVRLGDKVGIKT | – | 100 | approximately 10 fold | approximately 10 fold |
